The labels stand for the following.
B1: GRG23(L3P1.B20): GRG23 variant, SEQ ID NO:21; mutation at V206 (protein)
chain: METDRLVIPGSKSITNRALLLAAAAKGTSVLVRPLVSADTSAFKTAIQALGANVSADGDNWVVEGLGQAPHLDADIWCEDAGTVARFLPPFVAAGQGKFTVDGSEQLRRRPLRPLVDGIRHLGARVSSEQLPLTIEASGLAGGEYEIEAHQSSQFASGLIMAAPYARQGLRVRIPNPVSQPYLTMTLRMMRDFGLETSTDGATVSIPPGRYTARRYEIEPDASTASYFAAASAVSGRSFEFQGLGTDSIQGDTSFFNVLGRLGAEVHWAPNSVTISGPERLNGDIEVDMGEISDTFMTLAAIAPLADGPITITNIGHARLKESDRISAMETNLRTLGVQTDVGHDWMRIYPSTPHGGRVNCHRDHRIAMAFSILGLRVDGITLDDPQCVGKTFPGFFDYLGRLFPEKALTLPG
modifications: GRG23(L3P1.B20)
notes: mutation at V206
B2: GRG23(L3P1.023): GRG23 variant, SEQ ID NO:27; R5→H (protein)
chain: B1 chain with R5H, I206V
modifications: GRG23(L3P1.O23)
notes: R5→H
B3: GRG23(L3P1.F18): GRG23 variant, SEQ ID NO:25; T274→I (protein)
chain: B1 chain with I206V, T274I
modifications: GRG23(L3P1.F18)
notes: T274→I
B4: grg23(L3P1B3): GRG23 variant, SEQ ID NO:23; D75→H, E217→K (protein)
chain: B1 chain with D75H, I206V, E217K
modifications: GRG23(L3P1.B3)
notes: D75→H, E217→K

Where a chain is given by its changes, count along the chain named.

The subject of the assay is BL21*DE3 competent E. coli cells. In words: Selection for glyphosate resistance on M63+ plates containing 150 mM glyphosate. The format is cell-based. As to conditions: E. coli clones expressing the variant, 150 mM glyphosate plates. The procedure:
The mutagenized syngrg23 libraries were transformed into E. coli strain BL21*DE3 star (Invitrogen). Following transformation, individual colonies were plated on 1× M63 medium containing 150 mM glyphosate to select for clones that had retained enzymatic activity and growth tolerance.
Library ligations were transformed into BL21*DE3 competent E. coli cells (Invitrogen). The transformations were performed according to the manufacturer's instructions with the following modifications. After incubation for 1 hour at 37° C. in SOC medium, the cells were sedimented by centrifugation (5 minutes, 1000×g, 4° C.). The cells were washed with 1 ml M63+, centrifuged again, and the supernatant decanted. The cells were washed a second time with 1 ml M63+ and resuspended in 200 ul M63+.
The plates were incubated for 36 hours at 37° C.
Colonies identified on glyphosate plates were pinned into 96-well blocks containing LB medium and were grown to an O.D. of about 0.6. IPTG was then added (0.5 mM) and the blocks were incubated overnight at 20° C. to induce protein expression. Protein extracts were prepared from the cell pellets using POP culture reagent (Novagen) and Lysonase (Novagen), and the enzymatic activity in the crude lysates was measured after heating the extracts for 30 min at 37° C.
Regarding B1, the “glyphosate resistance (in words)” value was “retained glyphosate resistance”. On to B2, for which the “glyphosate resistance (in words)” value is listed as “retained glyphosate resistance”. Take B3: the “glyphosate resistance (in words)” value is “retained glyphosate resistance”. Regarding B4, the “glyphosate resistance (in words)” value is “retained glyphosate resistance”.

The record behind these values is patent US8252981B2 (Athenix Corp., priority 2006, dated 2012).
